Test results from the supplement of paper PMC9112550, “Optimization of the antimicrobial peptide Bac7 by deep mutational scanning” (BMC Biology, 2022).

Each sequence was assayed on Escherichia coli TOP10 (assay: shrunken log2 fold change of peptide-encoding DNA abundance (4.5 h post-induction vs induction); higher = less antimicrobial activity (less host growth inhibition)). Conditions: time post-induction: 4.5 h; library: site-saturation at positions 5, 18, 19, 20.
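Also: peptides expressed intracellularly from a pBAD plasmid library in pooled LB shake-flask culture, induced with 0.3% L-arabinose, DNA abundance read by NGS, three biological replicates, DESeq2 with apeglm shrinkage.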

Which “shrunken log2 fold change” value does the source give for RRIRDRPPRLPRPRPRPLCTPRP here?
The value was 0.704.

For RRIRFRPPRLPRPRPRPGYPPRP, which “shrunken log2 fold change” value is on record?
The value was 0.0384.

With RRIRPRPPRLPRPRPRPVPKPRP as the sequence, how does the “shrunken log2 fold change” value read?
Its value is 0.34.

Which “shrunken log2 fold change” value does the source give for RRIRARPPRLPRPRPRPYVPPRP here?
Its value is -0.114.

Which “shrunken log2 fold change” value does the source give for RRIRIRPPRLPRPRPRPEGWPRP here?
Its value is 0.497.

With RRIRRRPPRLPRPRPRPVIHPRP as the sequence, how does the “shrunken log2 fold change” value read?
The value was -0.0832.

How did the “shrunken log2 fold change” value turn out when RRIRPRPPRLPRPRPRPSNHPRP was run?
Its value is -0.497.

For RRIRDRPPRLPRPRPRPWCEPRP, which “shrunken log2 fold change” value is on record?
The value was -0.093.

RRIRTRPPRLPRPRPRPTQKPRP was tested. Which “shrunken log2 fold change” value did it give?
The value was -0.0787.

How did the “shrunken log2 fold change” value turn out when RRIRPRPPRLPRPRPRPTFSPRP was run?
Its value is -0.182.

How did the “shrunken log2 fold change” value turn out when RRIRWRPPRLPRPRPRPVPTPRP was run?
Its value is 0.544.

How did the “shrunken log2 fold change” value turn out when RRIRHRPPRLPRPRPRPQFHPRP was run?
Its value is -0.153.

How did the “shrunken log2 fold change” value turn out when RRIRVRPPRLPRPRPRPPSVPRP was run?
The value was 0.129.

RRIRYRPPRLPRPRPRPYVPPRP was tested. Which “shrunken log2 fold change” value did it give?
Its value is -0.77.

For RRIRHRPPRLPRPRPRPSMPPRP, which “shrunken log2 fold change” value is on record?
The value was -0.0929.

RRIRRRPPRLPRPRPRPWSEPRP was tested. Which “shrunken log2 fold change” value did it give?
The value was -0.142.

With RRIRKRPPRLPRPRPRPSMWPRP as the sequence, how does the “shrunken log2 fold change” value read?
The value was 1.63.

Which “shrunken log2 fold change” value does the source give for RRIRNRPPRLPRPRPRPKFWPRP here?
The value was 0.177.

How did the “shrunken log2 fold change” value turn out when RRIRNRPPRLPRPRPRPWWIPRP was run?
Its value is -0.00145.

Which “shrunken log2 fold change” value does the source give for RRIRKRPPRLPRPRPRPTIMPRP here?
Its value is -0.0223.

How did the “shrunken log2 fold change” value turn out when RRIRERPPRLPRPRPRPLHSPRP was run?
The value was -0.0649.

How did the “shrunken log2 fold change” value turn out when RRIRYRPPRLPRPRPRPEIAPRP was run?
Its value is -0.185.

Which “shrunken log2 fold change” value does the source give for RRIRYRPPRLPRPRPRPIWNPRP here?
Its value is 0.0337.

With RRIRKRPPRLPRPRPRPTNVPRP as the sequence, how does the “shrunken log2 fold change” value read?
The value was 0.221.

For RRIRFRPPRLPRPRPRPDVQPRP, which “shrunken log2 fold change” value is on record?
The value was -0.0115.

RRIRPRPPRLPRPRPRPFIAPRP was tested. Which “shrunken log2 fold change” value did it give?
The value was -0.342.

With RRIRLRPPRLPRPRPRPNAWPRP as the sequence, how does the “shrunken log2 fold change” value read?
The value was 0.0821.

With RRIRLRPPRLPRPRPRPDWRPRP as the sequence, how does the “shrunken log2 fold change” value read?
The value was 0.0715.

RRIRPRPPRLPRPRPRPIAWPRP was tested. Which “shrunken log2 fold change” value did it give?
The value was 0.266.

With RRIRDRPPRLPRPRPRPMAMPRP as the sequence, how does the “shrunken log2 fold change” value read?
Its value is 0.25.

With RRIRARPPRLPRPRPRPIRFPRP as the sequence, how does the “shrunken log2 fold change” value read?
The value was 0.247.

Which “shrunken log2 fold change” value does the source give for RRIRPRPPRLPRPRPRPTNPPRP here?
The value was 0.174.

For RRIRRRPPRLPRPRPRPYLIPRP, which “shrunken log2 fold change” value is on record?
Its value is -0.082.

Which “shrunken log2 fold change” value does the source give for RRIRARPPRLPRPRPRPMLHPRP here?
The value was 0.206.

For RRIRWRPPRLPRPRPRPRHPPRP, which “shrunken log2 fold change” value is on record?
Its value is 0.382.

For RRIRHRPPRLPRPRPRPWYAPRP, which “shrunken log2 fold change” value is on record?
The value was -0.41.

How did the “shrunken log2 fold change” value turn out when RRIRYRPPRLPRPRPRPHVEPRP was run?
The value was 0.0184.

For RRIRSRPPRLPRPRPRPRGPPRP, which “shrunken log2 fold change” value is on record?
The value was 0.568.

For RRIRMRPPRLPRPRPRPQVGPRP, which “shrunken log2 fold change” value is on record?
Its value is 0.12.

With RRIRRRPPRLPRPRPRPTECPRP as the sequence, how does the “shrunken log2 fold change” value read?
The value was 0.0801.

With RRIRYRPPRLPRPRPRPWVMPRP as the sequence, how does the “shrunken log2 fold change” value read?
The value was -0.195.

For RRIRFRPPRLPRPRPRPYKGPRP, which “shrunken log2 fold change” value is on record?
Its value is -0.631.

RRIRARPPRLPRPRPRPQWDPRP was tested. Which “shrunken log2 fold change” value did it give?
Its value is 0.00442.

For RRIRSRPPRLPRPRPRPPMFPRP, which “shrunken log2 fold change” value is on record?
The value was 0.0179.

With RRIRCRPPRLPRPRPRPWSAPRP as the sequence, how does the “shrunken log2 fold change” value read?
Its value is -0.308.

With RRIRMRPPRLPRPRPRPTKSPRP as the sequence, how does the “shrunken log2 fold change” value read?
The value was 0.459.

With RRIRDRPPRLPRPRPRPKSTPRP as the sequence, how does the “shrunken log2 fold change” value read?
Its value is -0.175.

Which “shrunken log2 fold change” value does the source give for RRIRMRPPRLPRPRPRPFVDPRP here?
The value was -0.338.

How did the “shrunken log2 fold change” value turn out when RRIRGRPPRLPRPRPRPDIQPRP was run?
Its value is 1.9.

For RRIRHRPPRLPRPRPRPYQIPRP, which “shrunken log2 fold change” value is on record?
The value was -0.484.

How did the “shrunken log2 fold change” value turn out when RRIRMRPPRLPRPRPRPAEWPRP was run?
Its value is 0.375.

RRIRNRPPRLPRPRPRPICFPRP was tested. Which “shrunken log2 fold change” value did it give?
The value was -0.217.

RRIRCRPPRLPRPRPRPTMIPRP was tested. Which “shrunken log2 fold change” value did it give?
The value was -0.922.

Which “shrunken log2 fold change” value does the source give for RRIRLRPPRLPRPRPRPTTKPRP here?
The value was 0.155.

For RRIRDRPPRLPRPRPRPPLAPRP, which “shrunken log2 fold change” value is on record?
Its value is 0.448.

RRIRGRPPRLPRPRPRPTHTPRP was tested. Which “shrunken log2 fold change” value did it give?
The value was 0.862.

For RRIRHRPPRLPRPRPRPWNMPRP, which “shrunken log2 fold change” value is on record?
Its value is -0.14.

With RRIRLRPPRLPRPRPRPRPIPRP as the sequence, how does the “shrunken log2 fold change” value read?
Its value is 0.384.

For RRIRERPPRLPRPRPRPLTFPRP, which “shrunken log2 fold change” value is on record?
The value was -0.693.

For RRIRIRPPRLPRPRPRPQVHPRP, which “shrunken log2 fold change” value is on record?
Its value is -0.707.

Which “shrunken log2 fold change” value does the source give for RRIRRRPPRLPRPRPRPRIAPRP here?
The value was 0.652.

With RRIRFRPPRLPRPRPRPMFHPRP as the sequence, how does the “shrunken log2 fold change” value read?
The value was -0.473.

For RRIRVRPPRLPRPRPRPDSNPRP, which “shrunken log2 fold change” value is on record?
Its value is -0.159.

RRIRQRPPRLPRPRPRPWVRPRP was tested. Which “shrunken log2 fold change” value did it give?
Its value is -0.112.

Which “shrunken log2 fold change” value does the source give for RRIRIRPPRLPRPRPRPRCVPRP here?
Its value is -0.0162.

RRIRQRPPRLPRPRPRPPQHPRP was tested. Which “shrunken log2 fold change” value did it give?
The value was 0.718.

How did the “shrunken log2 fold change” value turn out when RRIRTRPPRLPRPRPRPPRVPRP was run?
The value was 0.334.

How did the “shrunken log2 fold change” value turn out when RRIRKRPPRLPRPRPRPRSHPRP was run?
Its value is 0.38.

With RRIRLRPPRLPRPRPRPSSRPRP as the sequence, how does the “shrunken log2 fold change” value read?
Its value is -0.425.

With RRIRTRPPRLPRPRPRPCSKPRP as the sequence, how does the “shrunken log2 fold change” value read?
Its value is -0.074.

Which “shrunken log2 fold change” value does the source give for RRIRERPPRLPRPRPRPCFWPRP here?
Its value is -0.176.

How did the “shrunken log2 fold change” value turn out when RRIRGRPPRLPRPRPRPHMDPRP was run?
Its value is 0.0325.

RRIRCRPPRLPRPRPRPLKRPRP was tested. Which “shrunken log2 fold change” value did it give?
The value was -0.052.

With RRIRGRPPRLPRPRPRPSFDPRP as the sequence, how does the “shrunken log2 fold change” value read?
The value was 0.44.

RRIRNRPPRLPRPRPRPVLWPRP was tested. Which “shrunken log2 fold change” value did it give?
The value was 0.00135.

Which “shrunken log2 fold change” value does the source give for RRIRRRPPRLPRPRPRPHRVPRP here?
Its value is -0.0232.

Which “shrunken log2 fold change” value does the source give for RRIRHRPPRLPRPRPRPGNEPRP here?
Its value is -0.364.

For RRIRKRPPRLPRPRPRPTTCPRP, which “shrunken log2 fold change” value is on record?
The value was 0.273.

For RRIRNRPPRLPRPRPRPDSKPRP, which “shrunken log2 fold change” value is on record?
The value was -0.335.

For RRIRNRPPRLPRPRPRPAIIPRP, which “shrunken log2 fold change” value is on record?
Its value is 0.154.

With RRIRGRPPRLPRPRPRPDWWPRP as the sequence, how does the “shrunken log2 fold change” value read?
Its value is 0.937.

How did the “shrunken log2 fold change” value turn out when RRIRMRPPRLPRPRPRPVPKPRP was run?
Its value is 1.11.

How did the “shrunken log2 fold change” value turn out when RRIRYRPPRLPRPRPRPQEQPRP was run?
The value was -0.0134.

For RRIRMRPPRLPRPRPRPPLAPRP, which “shrunken log2 fold change” value is on record?
Its value is 1.48.

How did the “shrunken log2 fold change” value turn out when RRIRQRPPRLPRPRPRPMRKPRP was run?
Its value is 0.0266.

RRIRNRPPRLPRPRPRPYFPPRP was tested. Which “shrunken log2 fold change” value did it give?
The value was -0.143.

Which “shrunken log2 fold change” value does the source give for RRIRERPPRLPRPRPRPENLPRP here?
Its value is -0.226.

Which “shrunken log2 fold change” value does the source give for RRIRDRPPRLPRPRPRPFTYPRP here?
The value was -0.0134.

For RRIRSRPPRLPRPRPRPRPSPRP, which “shrunken log2 fold change” value is on record?
The value was 0.439.

For RRIRLRPPRLPRPRPRPYMNPRP, which “shrunken log2 fold change” value is on record?
The value was -1.06.

RRIRVRPPRLPRPRPRPDYDPRP was tested. Which “shrunken log2 fold change” value did it give?
The value was 0.00442.

For RRIRTRPPRLPRPRPRPPDIPRP, which “shrunken log2 fold change” value is on record?
The value was -0.118.

RRIRDRPPRLPRPRPRPRFGPRP was tested. Which “shrunken log2 fold change” value did it give?
The value was 0.206.

RRIRLRPPRLPRPRPRPTNQPRP was tested. Which “shrunken log2 fold change” value did it give?
The value was -0.327.

For RRIRPRPPRLPRPRPRPQWIPRP, which “shrunken log2 fold change” value is on record?
Its value is 0.0662.

RRIRERPPRLPRPRPRPNNIPRP was tested. Which “shrunken log2 fold change” value did it give?
The value was -0.787.

Which “shrunken log2 fold change” value does the source give for RRIRVRPPRLPRPRPRPWITPRP here?
The value was -1.08.

RRIRGRPPRLPRPRPRPALRPRP was tested. Which “shrunken log2 fold change” value did it give?
The value was 0.991.

For RRIRTRPPRLPRPRPRPKNGPRP, which “shrunken log2 fold change” value is on record?
Its value is 0.0173.

Which “shrunken log2 fold change” value does the source give for RRIRLRPPRLPRPRPRPYCFPRP here?
The value was -0.909.

With RRIRQRPPRLPRPRPRPCDVPRP as the sequence, how does the “shrunken log2 fold change” value read?
The value was -0.15.

RRIRPRPPRLPRPRPRPHWRPRP was tested. Which “shrunken log2 fold change” value did it give?
The value was 0.0957.

Which “shrunken log2 fold change” value does the source give for RRIRPRPPRLPRPRPRPLPPPRP here?
The value was 0.36.

With RRIRYRPPRLPRPRPRPQTGPRP as the sequence, how does the “shrunken log2 fold change” value read?
Its value is -0.288.

How did the “shrunken log2 fold change” value turn out when RRIRVRPPRLPRPRPRPASMPRP was run?
Its value is 0.0106.

With RRIRHRPPRLPRPRPRPEFCPRP as the sequence, how does the “shrunken log2 fold change” value read?
The value was -0.0591.

With RRIRIRPPRLPRPRPRPMIDPRP as the sequence, how does the “shrunken log2 fold change” value read?
Its value is -1.15.

RRIRNRPPRLPRPRPRPEMAPRP was tested. Which “shrunken log2 fold change” value did it give?
Its value is 0.321.

With RRIRTRPPRLPRPRPRPLETPRP as the sequence, how does the “shrunken log2 fold change” value read?
The value was 0.0461.
